Experimental findings from patent US20040014132A1 (AstraZeneca / MedImmune, published 2004) are described below.

This assay addresses Human eotaxin (human, UniProt P51671 24-97). Nature of the assay: cell-based or functional assay.

Human eotaxin, sequence (P51671 24-97 limits assumed): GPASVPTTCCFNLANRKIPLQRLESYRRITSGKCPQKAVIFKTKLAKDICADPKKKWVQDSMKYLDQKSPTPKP

B1: CAT-212 (scFv, part only; not given: scFv linker and myc/His tag, V domains shown, not shown: another chain or arm of the molecule; small tags and cut ends)
VH: QVQLVQSGGGVVQPGRSLRLSCAASGFTFSSYGMHWVRQAPGKGLEWVAVISYDGSIKHYADSVKGRFTISRDNSKNTLYLQMNSLRTDDTAVYYCAGDTDYGDIDPWGQGTMVTVSS
VL: DIQMTQSPSSVSASVGDRVTITCRASQDISSWLAWYQQKPGKAPKLLIYAASSLQSGVPSRFSGSGSGTDFTLTISSLQPEDFATYYCQQASSFPSITFGQGTRLEIK
As for B1, the IC50, inhibition of eotaxin-induced Ca^2+ flux in CCR3 cells (area under the curve, FLIPR) stood at 5 nM and the IC50, inhibition of eotaxin-mediated chemotaxis of CCR3 transfected L1.2 cells came to 0.65 nM.

B2: CAT-213 (antibody, human IgG4, V domains shown)
VH: QVQLVQSGGGVVQPGRSLRLSCAASGFTFSSYGMHWVRQAPGKGLEWVAVISYDGSIKHYADSVKGRFTISRDNSKNTLYLQMNSLRTDDTAVYYCAGDTDYGDIDPWGQGTMVTVSS
VL: DIQMTQSPSSVSASVGDRVTITCRASQDISSWLAWYQQKPGKAPKLLIYAASSLQSGVPSRFSGSGSGTDFTLTISSLQPEDFATYYCQQASSFPSITFGQGTRLEIKR
On to B2, for which the “IC50, inhibition of eotaxin-mediated chemotaxis of CCR3 transfected L1.2 cells” value stood at 0.7 nM and the “geometric mean IC50, inhibition of eotaxin-evoked shape change of human eosinophils (forward scatter)” value amounted to 0.714 nM.
